Changes are numbered by the printed parent chain.
Columns and labels:
Experiment in all cases: EMSA
[1] = target: T1, SmAlkD2 (Streptococcus mutans Clarke (ATCC 25175)) (UniProt A0A0M3KL00); conditions: EMSA: 100 pM 32P-DNA, 0-50 uM protein, 20 mM Tris-HCl pH 7.5, 100 mM NaCl, 5% glycerol, 2 mM DTT, 0.1 mM EDTA, 0.1 mg/mL BSA, 20 C, 30 min, 5% native gel
T1 sequence: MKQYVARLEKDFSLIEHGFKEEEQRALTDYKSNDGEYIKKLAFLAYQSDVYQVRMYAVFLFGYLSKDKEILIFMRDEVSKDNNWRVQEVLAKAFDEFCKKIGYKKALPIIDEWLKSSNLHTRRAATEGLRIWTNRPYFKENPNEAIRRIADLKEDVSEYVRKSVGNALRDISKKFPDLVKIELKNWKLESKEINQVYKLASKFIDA

[2] = target: T2, BcAlkD (Bacillus cereus) (UniProt Q2PAD8); conditions: EMSA: 100 pM 32P-DNA, 0-50 uM protein, 20 mM Tris-HCl pH 7.5, 100 mM NaCl, 5% glycerol, 2 mM DTT, 0.1 mM EDTA, 0.1 mg/mL BSA, 20 C, 30 min; 5% native gel
T2 sequence: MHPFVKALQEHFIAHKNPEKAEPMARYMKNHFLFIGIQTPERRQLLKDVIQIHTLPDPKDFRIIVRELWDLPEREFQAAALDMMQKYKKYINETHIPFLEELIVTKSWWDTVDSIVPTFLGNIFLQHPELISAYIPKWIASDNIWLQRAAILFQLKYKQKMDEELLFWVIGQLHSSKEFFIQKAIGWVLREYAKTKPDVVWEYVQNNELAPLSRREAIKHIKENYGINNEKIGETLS

[3] = target: T3, BcAlkD-K29A K29A (Bacillus cereus) (UniProt Q2PAD8); conditions: N13 of strand 1 = tetrahydrofuran (THF) abasic site mimetic; EMSA: 100 pM 32P-DNA, 0-50 uM protein, 20 mM Tris-HCl pH 7.5, 100 mM NaCl, 5% glycerol, 2 mM DTT, 0.1 mM EDTA, 0.1 mg/mL BSA, 20 C, 30 min; 5% native gel
T3 sequence: T2 sequence with K29A

**Q.** “GACCACTACACCGATTCCTTACAAC (double strand) [G•C-DNA 25-mer]” was tested. Which Kd [1] did it give?
**A.** The Kd was 67 µM.

**Q.** What about the Kd [2] of the same sequence?
**A.** Its Kd is 19 µM.

**Q.** “GACCACTACACCGATTCCTTACAAC / GTTGTAAGGAATTGGTGTAGTGGTC [G•T-DNA 25-mer]” was tested. Which Kd ([1]; G13•T13 mismatch) did it give?
**A.** Its Kd is 52 µM.

**Q.** With “GACCACTACACCNATTCCTTACAAC / GTTGTAAGGAATCGGTGTAGTGGTC [THF•C-DNA 25-mer]” as the sequence, how does the Kd ([1]; N13 of strand 1 = tetrahydrofuran (THF) abasic site mimetic) read?
**A.** Its Kd is 3.4 µM.

**Q.** What about the binding signal (fold lower affinity than WT) [3] of the same sequence?
**A.** Its binding signal (fold lower affinity than WT) is greater than 10000.

Source: article PMC4433238
